Test results: US20260240958A1, “REPRESSOR FUSION PROTEIN SYSTEMS” (Scribe Therapeutics Inc., priority 2023, published 2026)

B1: DOMAIN_26749: repressor domain, Ophiophagus hannah, SEQ ID NO 135 (protein)
chain: STPVTFEDVVVYFTAAEWVHLTNWQRDFYQAVMMETYELVASVAGDGVPMAEDEEGGVERPVWQYIPRGKRRRKTPQPRAD
modifications: Ophiophagus hannah
B2: scaffold 316: chimeric gRNA scaffold: scaffold 235 with extended stem loop of scaffold 174; SEQ ID NO 1746 (nucleic acid)
guide: ACUGGCGCUUCUAUCUGAUUACUCUGAGCGCCAUCACCAGCGACUAUGUCGUAGUGGGUAAAGCUCCCUCUUCGGAGGGAGCAUCAGAG
modifications: listed as RNA, further chemistry not given here

Key:
B2M locus [1] = assay: B2M repression by HLA immunostaining and flow cytometry in HEK293T cells transfected with LTRP:gRNA plasmids
B2M locus [2] = assay: B2M knockout (loss of HLA surface presentation, flow cytometry) in HepG2 cells with CasX 491 mRNA and B2M-targeting gRNA; assay type: cell-based, human; conditions: LNPs, CasX 491 mRNA, spacer 7.9 v1, each dose, compared with scaffold 174
Description: To compare the editing potency of version 0 (v0) and version 1 (v1) of B2M-targeting gRNAs, ~6E4 HepG2 hepatocytes were seeded per well of a 96-well plate. 24 hours later, seeded cells were co-transfected using lipofectamine with 100 ng of in vitro transcribed mRNA coding for CasX 491 and different doses (1, 5, or 50 ng) of either v0 or v1 of the B2M-targeting gRNA containing scaffold variant 174 and spacer 7.37 (see Table 45).
(§1) ~50,000 HepG2 cells, cultured in DMEM/F-12 media containing 10% FBS and 1% PenStrep, were seeded per well in a 96-well plate. The next day, seeded cells were treated with varying concentrations of LNPs, which were prepared in six 2-fold serial dilutions starting at 250 ng. These LNPs were formulated to encapsulate CasX 491 mRNA and a B2M-targeting gRNA incorporating either scaffold variant 174 or 316 with spacer 7.9 (v1; see Table 45). Media was changed 24 hours after LNP treatment, and cells were cultured for six additional days prior to harvesting for gDNA extraction for editing assessment at the B2M locus by NGS and B2M protein expression analysis via HLA immunostaining, followed by flow cytometry using the Attune NxT flow cytometer. Briefly, for editing assessment, amplicons were amplified from 200 ng of extracted gDNA with primers targeting the human B2M locus and processed as described in Example 1.

PCSK9 locus [3] = assay: Editing (indel rate by NGS) at the PCSK9 locus in HepG2 cells lipofected with CasX 491 mRNA and gRNA; assay type: cell-based, human; conditions: CasX 491 mRNA, v1 gRNAs spacers 6.7 and 6.8, 28 hours
Description: (§2) Editing at the PCSK9 locus and consequential effects on secreted PCSK9 levels were assessed for conditions using CasX 491 mRNA co-delivered with a PCSK9-targeting gRNA with scaffold variant 174 compared to conditions where a PCSK9-targeting gRNA with scaffold variant 316 was used. 100 ng of in vitro transcribed mRNA coding for CasX 491 with a P2A and mScarlet fluorescent protein was transfected into HepG2 cells with version 1 (v1) of gRNAs 174-6.7, 174-6.8, 316-6.7, and 316-6.8 (see Table 45) using lipofectamine. After a media change, the following were harvested at 28 hours post-transfection: 1) transfected cells were harvested for editing assessment at the PCSK9 locus by NGS (next generation sequencing); and 2) media supernatant was harvested to measure secreted PCSK9 protein levels by ELISA. For editing analysis by NGS, amplicons were amplified from 200 ng of extracted gDNA with a set of primers targeting the PCSK9 locus and processed as described earlier in Example 1. Secreted PCSK9 levels in the media supernatant were also analyzed using a fluorescence resonance energy transfer-based immunoassay from CISBio following the manufacturer's instructions. […]
(§3) V1 through v6 variants of chemically-modified PCSK9-targeting gRNAs (Table 45) were assessed for their effects on editing potency and consequential effects on secreted PCSK9 levels in vitro. […]

6.7/6.8 target dsDNA [4] = assay: Competent (active) fraction of CasX 491 RNPs formed by each gRNA, equimolar cleavage assay; assay type: biochemical; conditions: CasX 491 RNP, v1 gRNA, spacer 6.7 or 6.8
Description: (§4) Double-stranded DNA (dsDNA) targets were formed by mixing the oligos in a 1:1 ratio in 1× cleavage buffer (20 mM Tris HCl pH 7.5, 150 mM NaCl, 1 mM TCEP, […], 10 mM MgCl2), following by heating to 95° C. for 10 minutes, and then allowing the solution to cool to room temperature. CasX ribonucleoproteins (RNPs) were reconstituted with CasX 491 and the indicated gRNAs at a final concentration of 1 μM with 1.2-fold excess of the indicated gRNA in 1× cleavage buffer. RNPs were allowed to form at 37° C. for 10 minutes.
To determine the competent fraction formed by each gRNA, cleavage reactions were prepared with final RNP concentrations of 100 nM and final target concentrations of 100 nM. Reactions were carried out at 37° C. and initiated by the addition of the labeled target substrate (Table 46). Aliquots were taken at 0.5, 1, 2, 5, 10, and 30 minutes and quenched by adding an equal volume of 95% formamide with 25 mM EDTA. Samples were denatured by heating at 95° C. for 10 minutes and resolved on a 10% urea-PAGE gel. Gels were imaged and quantified as above. […] The plateau of each fit was determined and reported as the active fraction for each RNP in Table 49.

PCSK9 locus [5] = assay: Secreted PCSK9 levels in media of HepG2 cells lipofected with CasX 491 mRNA and gRNA; assay type: cell-based, human; conditions: CasX 491 mRNA, v1 gRNAs spacers 6.7 and 6.8, compared with scaffold 174
Description: as §2, §3

6.7/6.8 target dsDNA [6] = assay: In vitro cleavage rate (kcleave) of CasX 491 RNPs with gRNA variants on labeled dsDNA target; assay type: biochemical; conditions: CasX 491 RNP, v1 gRNA, compared with scaffold 174
Description: as §4
The effects of various structural and chemical modifications to the gRNA scaffold on the cleavage rate of CasX 491 RNPs were determined. Cleavage reactions were prepared with final RNP concentrations of 200 nM and final target concentrations of 10 nM, and reactions were carried out at 16° C. and initiated by the addition of the labeled target DNA substrate (Table 46). Aliquots of reactions were taken at 0.25, 0.5, 1, 2, 5, and 10 minutes and quenched by adding an equal volume of 95% formamide with 20 mM EDTA. Samples were denatured at 95° C. for 10 minutes and resolved on a 10% urea-PAGE gel. Gels were imaged on a Typhoon™ laser-scanner platform and quantified using ImageQuant™ TL 8.2 image analysis software (Cytiva™). The apparent first-order rate constant of non-target strand cleavage (kcieave-) was determined for each CasX:gRNA combination.

human B2M locus = assay: Indel rate by NGS at the human B2M locus in HepG2 cells treated with LNPs (CasX 491 mRNA and gRNA); assay type: cell-based; conditions: CasX 491 mRNA
Description: as §1

Molecule | B2M repression as second repressor domain in LTRP6 configuration (B2M locus [1]; 4 days post-transfection) | B2M repression (HLA-negative cells) (B2M locus [1]; gRNA scaffold 174 spacer 7.165, LTRP6 = ZIM3 first, named domain second repressor domain, day not stated in text (Tables 16-18, days 4-13)) | editing potency at the B2M locus (loss of HLA surface presentation) (B2M locus [2]) | increase in editing rate at the PCSK9 locus over scaffold 174 (PCSK9 locus [3]) | active fraction higher than for scaffold 174 (6.7/6.8 target dsDNA [4]) | reduction of PCSK9 secretion (PCSK9 locus [5]) | cleavage rate (6.7/6.8 target dsDNA [6]; spacer 6.7) | cleavage rate (6.7/6.8 target dsDNA [6]; spacer 6.8) | editing potency at the B2M locus (indel rate by NGS) (human B2M locus; spacer 7.9 v1, each dose, compared with scaffold 174) | editing level at the B2M locus compared with scaffold 174 (human B2M locus; spacer 7.9 v1, highest dose of 250 ng)
B1 | highest level of B2M repression at 4 days post-transfection | ~ 83.800% |  |  |  |  |  |  |  | 
B2 |  |  | higher editing potency at the B2M locus | ~ 10 percentage point | 25-30% | more effective reduction of PCSK9 secretion | marginally faster cleavage | nearly twice as quickly | higher editing potency at the B2M locus | nearly two-fold higher
